Laboratory results from the supplement of paper PMC12764529.
± gives the half width of the 95% confidence interval.

Assays:
[1] = folding stability dG unfold (combined trypsin and chymotrypsin); higher = more stable
Outline: (§1)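 Designed mini-proteins (under 80 residues, no cysteine) in a PA-tagged cDNA display construct were digested with trypsin and chymotrypsin. Each protease was used at 11 concentrations (threefold dilutions) plus a no-protease condition, followed by sequencing. K50 was inferred by Bayesian fitting of sequencing counts, and unfolding free energy was derived against a sequence-predicted unfolded-state K50 and a shared folded-state K50, per protease or combined. Only designs with AlphaFold2 dimer inter-PAE above 15 were kept.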

[2] = folding stability dG unfold from trypsin proteolysis; higher = more stable
Outline: as §1

[3] = folding stability dG unfold from chymotrypsin proteolysis; higher = more stable
Outline: as §1

Sequence | folding stability dG unfold [1] [kcal/mol] | folding stability dG unfold [2] [kcal/mol] | folding stability dG unfold [3] [kcal/mol]
SAGGSMKPVKKTIVILKPSSVTEEEVKEEVVEKAKELGLKVKPIRTEVYPLPDYYLVVVEVEIEVPPESAGG [r13_351_TrMRF] | 1.38 ± 0.21 | 1.56 ± 0.11 | 1.24 ± 0.072
SAGGMIKIEVEKKDDKLIIRIEVDGKKYEIEIPKDMTLEEALKKALEELKEKFPGKKIKIKKVEIFKPSAGG [r13_884_TrROS_Hall] | 2.36 ± 0.28 | 3.22 ± 0.21 | 2.21 ± 0.088
SAGGSAGGSAGGSGNPVVRVFEFDDYIAVVTFNPGDGSVEVLSVGKVPPAAIPGSPELSSAGGSAGGSAGGS [r4_21_TrMRF] | 1.17 ± 0.036 | 1.08 ± 0.024 | 1.16 ± 0.033
SAGGSIEEVIEELIKSGKPPSKEEIKEAIKKAIEEEVKKKGKKIPKVNIKKITSNPETGKIPIEIIISAGGS [r16_365_JUSTAS] | 0.356 ± 0.17 | -0.757 ± 0.41 | 0.784 ± 0.056
SAGGSALVIKKVEPNKGYLVFESKEDDKPIVRVKLETLVAALEEDRIPPALRRLLAENPDQVFNPVSAGGSA [r15_359_TrMRF] | 1.9 ± 0.21 | 2.22 ± 0.12 | 1.75 ± 0.25
SMKVIIIERPDESGVPVVIVLPEEEALELYRKLFNVPMSVEEFAEKLKELNPNVKVEVVPLEEVSEEVLLSA [r9_1085_JUSTAS] | 2.35 ± 0.18 | 2.23 ± 0.086 | 2.28 ± 0.058
SAGGDEDDWRPIEIPLYIRNPENGHLFQITPMKIWVPDNLTIEMEMEMFDPDDGKVEKHKMTFTIPAKSAGG [r13_206_TrROS] | 1.64 ± 0.22 | 1.2 ± 0.088 | 2.09 ± 0.21
SAGGSAGGSAGAPNIVVVTLTRDALFYNPVEGKWEVKPVTLTRAFTSKEEADKWLEEIGLSAGGSAGGSAGG [r11_984_TrMRF] | 3.5 ± 0.095 | 2.95 ± 0.091 | 3.84 ± 0.042
SAGGPKVEIVDITVTEEEVNGKKKKTVTVKVKLENGETLTITMSEEELKKLGLSVEEIAKKLAKKLKSAGGS [r16_625_TrROS_Hall] | 2.09 ± 0.15 | 1.54 ± 0.035 | 2.38 ± 0.044
SAGGSAGGSAGGMFVRIEVDGKTILLEADSLEEALAAIRALLPPGEKVKVELVSEEELKSAGGSAGGSAGGS [r10_1167_TrROS_Hall] | 2.85 ± 0.047 | 2.44 ± 0.084 | 3.04 ± 0.068
SAGGMPEKVVVLRIRVTIRRDGEEEEIELEIRLPEEGQELTEEQLLALLRELLPPGYEIRRVEIEELSAGGS [r16_407_TrROS_Hall] | 4.73 ± 0.048 | 4.63 ± 0.077 | 4.755 ± 0.043
SAGGMSALRIVAENLPEDARVVLPDGRVFPPGVELELPLEADLDVVVALDEDGRVHHVERVPLDRPLLSAGG [r13_441_TrMRF] | -0.389 ± 0.099 | -0.352 ± 0.16 | -0.501 ± 0.21
SAGGSAGGSGMKITSISKLPDGSYLVTTQDPGKGTPTTVPFSTPEEGKKLKKELEEKGGKVELSAGGSAGGS [r20_177_JUSTAS] | -0.0711 ± 0.18 | -0.0663 ± 0.1 | -0.0692 ± 0.11
SAGGSAGGLEIVLPREELEELIRRGEIDEVEIERSEDDLVRARPIIRPPPPLPPEVGALLRALASAGGSAGG [r6_278_TrMRF] | 1.56 ± 0.37 | 0.891 ± 0.2 | 1.91 ± 0.088
SEFELKIEEEEDPATGVLRVTVTFNTSLEDAKEKLKELLKESGLNAVIKSVEEKKVGPEVTITFEIEIPPSA [r9_164_JUSTAS] | 3.05 ± 0.057 | 2.71 ± 0.065 | 3.27 ± 0.052
SAGGSAGGSAGGFRIKITEIWPISMEMRKPDPENGKWKEQPMTIMIIRIKIENLPPGAKISAGGSAGGSAGG [r17_530_TrROS] | 3.41 ± 0.1 | 2.54 ± 0.048 | 3.9 ± 0.079
SAGGSAMTIEKREDGYLVITVDVPPGTSPEELAERLKKLFPNEEVTVTVVKDGKLVKEFVIKAEDLSAGGSA [r15_1047_TrROS_Hall] | 2.2 ± 0.071 | 2.25 ± 0.056 | 2.06 ± 0.034
SAGGSAGGSADKIPVKIKVKLKDGDKEYEVTVTVTLDVNDPNLDAFAKELASSGKIEEVEASAGGSAGGSAG [r3_30_TrMRF] | 0.973 ± 0.19 | 0.877 ± 0.072 | 1.03 ± 0.15
SAGGPPPKWVKIDIFIFIYNPDNGRPIFIRITSIEIRLDENNELDVEIEFEVFDPNGKPVKYTMTFKSAGGS [r16_200_TrROS] | 4.45 ± 0.24 | 3.81 ± 0.12 | 4.8 ± 0.11
SAGGMELVGEYEVELPDVPIRFPVYRVPEAGLVVVEAERYDPSTGEWTPLGVVPLPEGSAEEALKALSAGGS [r8_423_TrMRF] | 0.864 ± 0.061 | 1.21 ± 0.034 | 0.334 ± 0.089
SAGGSAGGMTVPITLPLDEYSPEEVEAKIKAIREEIEKKNPDKKISINVTLVPQPPEPTPENLRSAGGSAGG [r6_729_JUSTAS] | 0.299 ± 0.07 | -0.745 ± 0.14 | 0.517 ± 0.023
